# Test results as given in patent publication US20260193293A1, “PEPTIDES CAPABLE OF INHIBITING PROTEIN-PROTEIN INTERACTIONS AT GABAB1A SUBUNIT AND USES THEREOF” (UNIVERSITY OF COPENHAGEN, priority 2022, published 2026).
# Non-standard residues stand in square brackets, D forms with d. 2Nal = N[C@@H](Cc1ccc2ccccc2c1)C(=O)O
# How the values were obtained:
# [1] = molecular target: Sushi domains (SD1/2) protein of the GABAB1a (GB1a) subunit, recombinant; experiment: FP inhibition
# [2] = molecular target: Sushi domains (SD1/2) protein of the GABAB1a (GB1a) subunit, recombinant; experiment: FP competition
# [3] = molecular target: Sushi domains (SD1/2) protein of the GABAB1a (GB1a) subunit, recombinant; experiment: FP competition; end of the range assigned from the Ki values of Table 2
# Sequence of Sushi domains (SD1/2) protein of the GABAB1a (GB1a) subunit, recombinant (Q9Z0U4 29-158): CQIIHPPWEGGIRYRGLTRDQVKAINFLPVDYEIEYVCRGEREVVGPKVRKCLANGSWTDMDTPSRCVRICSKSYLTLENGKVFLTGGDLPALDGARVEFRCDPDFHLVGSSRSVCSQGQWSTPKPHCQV
fold higher affinity than 4R-16 [1] [fold],Ki [2] [nM],fold loss of affinity against the untagged peptide [3] [fold],Binder
2,12,,Ac-RRRREDDD[2Nal]IDWYDSDDD-NH2 (SMILES CC[C@H](C)[C@H](NC(=O)[C@H](Cc1ccc2ccccc2c1)NC(=O)[C@H](CC(=O)O)NC(=O)[C@H](CC(=O)O)NC(=O)[C@H](CC(=O)O)NC(=O)[C@H](CCC(=O)O)NC(=O)[C@H](CCCNC(=N)N)NC(=O)[C@H](CCCNC(=N)N)NC(=O)[C@H](CCCNC(=N)N)NC(=O)[C@H](CCCNC(=N)N)NC(C)=O)C(=O)N[C@@H](CC(=O)O)C(=O)N[C@@H](Cc1c[nH]c2ccccc12)C(=O)N[C@@H](Cc1ccc(O)cc1)C(=O)N[C@@H](CC(=O)O)C(=O)N[C@@H](CO)C(=O)N[C@@H](CC(=O)O)C(=O)N[C@@H](CC(=O)O)C(=O)N[C@@H](CC(=O)O)C(N)=O) [R4-20 (Ac-RRRREDDD(2Nala)…-NH2)]
,107,12 to 33,Ac-RRRRRRRREDDDWIDWYDSDDD-NH2 [R8-16 (Ac-…-NH2)]
